Measurements: article PMC4917648, “praja2 regulates KSR1 stability and mitogenic signaling” (Cell Death & Disease, 2016)

Target: T1, kinase suppressor of Ras 1 (KSR1), endogenous (human (endogenous in HEK293), UniProt Q8IVT5 1-923)
T1 sequence (looked up): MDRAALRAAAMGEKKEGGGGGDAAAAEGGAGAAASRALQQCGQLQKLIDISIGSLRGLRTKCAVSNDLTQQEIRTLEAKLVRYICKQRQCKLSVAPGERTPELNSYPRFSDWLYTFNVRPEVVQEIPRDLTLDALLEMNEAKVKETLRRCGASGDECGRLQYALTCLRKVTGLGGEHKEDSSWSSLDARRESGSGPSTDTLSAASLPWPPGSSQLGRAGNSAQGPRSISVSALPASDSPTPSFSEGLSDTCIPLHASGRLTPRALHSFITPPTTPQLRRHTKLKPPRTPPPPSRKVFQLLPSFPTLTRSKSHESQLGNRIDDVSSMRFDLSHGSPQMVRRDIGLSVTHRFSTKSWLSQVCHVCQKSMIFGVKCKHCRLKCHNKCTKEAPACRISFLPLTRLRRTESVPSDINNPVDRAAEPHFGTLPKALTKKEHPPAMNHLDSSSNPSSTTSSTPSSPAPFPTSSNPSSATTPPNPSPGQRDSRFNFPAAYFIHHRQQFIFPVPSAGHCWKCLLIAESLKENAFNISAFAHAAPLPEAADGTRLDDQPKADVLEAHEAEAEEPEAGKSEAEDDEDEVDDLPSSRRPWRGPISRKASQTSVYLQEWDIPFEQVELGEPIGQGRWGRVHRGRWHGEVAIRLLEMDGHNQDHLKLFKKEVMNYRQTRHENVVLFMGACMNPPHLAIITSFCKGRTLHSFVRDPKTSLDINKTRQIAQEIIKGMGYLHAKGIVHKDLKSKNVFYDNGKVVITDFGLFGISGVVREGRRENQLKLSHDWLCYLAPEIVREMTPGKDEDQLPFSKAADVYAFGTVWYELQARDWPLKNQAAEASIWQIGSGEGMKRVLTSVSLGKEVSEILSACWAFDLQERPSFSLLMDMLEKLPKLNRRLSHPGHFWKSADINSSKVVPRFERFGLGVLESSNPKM
Assay: cell-based or functional assay

B1: praja2 (endogenous) (natural protein, human (endogenous in HEK293), UniProt O43164 1-708, looked up)
chain: MSQYTEKEPAAMDQESGKAVWPKPAGGYQTITGRRYGRRHAYVSFKPCMTRHERSLGRAGDDYEVLELDDVPKENSSGSSPLDQVDSSLPSEPIFEKSETEIPTCGSALNQTTESSQSFVAVHHSEEGRDTLGSSTNLHNHSEGEYIPGACSASSVQNGIALVHTDSYDPDGKHGEDNDHLQLSAEVVEGSRYQESLGNTVFELENREAEAYTGLSPPVPSFNCEVRDEFEELDSVPLVKSSAGDTEFVHQNSQEIQRSSQDEMVSTKQQNNTSQERQTEHSPEDAACGPGHICSEQNTNDREKNHGSSPEQVVRPKVRKLISSSQVDQETGFNRHEAKQRSVQRWREALEVEESGSDDLLIKCEEYDGEHDCMFLDPPYSRVITQRETENNQMTSESGATAGRQEVDNTFWNGCGDYYQLYDKDEDSSECSDGEWSASLPHRFSGTEKDQSSSDESWETLPGKDENEPELQSDSSGPEEENQELSLQEGEQTSLEEGEIPWLQYNEVNESSSDEGNEPANEFAQPAFMLDGNNNLEDDSSVSEDLDVDWSLFDGFADGLGVAEAISYVDPQFLTYMALEERLAQAMETALAHLESLAVDVEVANPPASKESIDGLPETLVLEDHTAIGQEQCCPICCSEYIKDDIATELPCHHFFHKPCVSIWLQKSGTCPVCRRHFPPAVIEASAAPSSEPDPDAPPSNDSIAEAP
With B1 the “growth of MCF-7 cells treated for 48 h with go-onERK-Flag against scrambled-Flag (cell counts)” value was roughly 2 fold.
